Experimental data: article PMC7868338, “Identification of Functional Interactome of Colistin Resistance Protein MCR-1 in Escherichia coli” (Frontiers in Microbiology, 2020)

T1: SspB protein (SPR analyte) (E. coli, UniProt P0AFZ3 1-165)
T1 chain: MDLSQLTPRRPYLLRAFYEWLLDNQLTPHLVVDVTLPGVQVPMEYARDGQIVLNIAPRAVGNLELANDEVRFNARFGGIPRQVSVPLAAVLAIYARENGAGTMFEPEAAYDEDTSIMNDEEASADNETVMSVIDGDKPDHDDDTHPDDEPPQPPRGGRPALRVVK

T2: MCR-1 full-length protein (E. coli (strain SHP45), UniProt A0A0R6L508 1-541)
T2 construct: MCR-1, phosphoethanolamine transferase; gene amplified from E. coli strain SHP45; 541 amino acids; also called His6-MCR-1; source: E. coli BL21 (DE3) (pET28a-mcr-1), IPTG-induced; in lysate (1% DDM) for the Co-IP; purified (Ni-NTA) for SPR
T2 sequence: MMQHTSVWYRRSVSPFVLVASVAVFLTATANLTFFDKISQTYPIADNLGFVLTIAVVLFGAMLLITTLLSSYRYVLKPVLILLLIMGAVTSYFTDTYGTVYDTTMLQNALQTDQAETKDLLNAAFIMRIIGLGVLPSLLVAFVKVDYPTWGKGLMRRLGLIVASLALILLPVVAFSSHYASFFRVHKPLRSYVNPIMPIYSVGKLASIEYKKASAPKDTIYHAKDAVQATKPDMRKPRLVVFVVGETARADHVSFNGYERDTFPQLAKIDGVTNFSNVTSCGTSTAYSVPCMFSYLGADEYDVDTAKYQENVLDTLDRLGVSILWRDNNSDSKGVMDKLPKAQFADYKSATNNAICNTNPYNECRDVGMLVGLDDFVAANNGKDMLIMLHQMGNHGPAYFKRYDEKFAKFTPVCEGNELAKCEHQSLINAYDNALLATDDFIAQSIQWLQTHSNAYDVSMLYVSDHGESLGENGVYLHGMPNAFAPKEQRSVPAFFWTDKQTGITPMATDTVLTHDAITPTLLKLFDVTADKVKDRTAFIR

T3: MCR-1-200 catalytic domain protein (E. coli (strain SHP45), UniProt A0A0R6L508 201-541)
T3 construct: catalytic domain of MCR-1, 341 amino acids; also called catalytic domain of MCR-1; MCR-1 catalytic protein; source: E. coli BL21 (DE3) (pET28a-mcr-1-200), IPTG-induced; in lysate (1% DDM) for the Co-IP; purified (Ni-NTA) for SPR
T3 sequence: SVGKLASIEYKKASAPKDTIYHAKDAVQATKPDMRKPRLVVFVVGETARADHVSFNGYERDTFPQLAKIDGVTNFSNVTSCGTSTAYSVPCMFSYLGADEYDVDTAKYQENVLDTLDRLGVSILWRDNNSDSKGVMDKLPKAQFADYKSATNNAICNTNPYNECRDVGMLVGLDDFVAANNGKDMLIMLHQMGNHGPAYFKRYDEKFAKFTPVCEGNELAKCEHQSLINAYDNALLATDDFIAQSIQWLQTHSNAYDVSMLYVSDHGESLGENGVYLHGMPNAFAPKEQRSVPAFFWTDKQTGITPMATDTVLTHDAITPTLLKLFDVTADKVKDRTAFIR


Experiments:
[1] = target: T1, SspB protein (SPR analyte); assay: SPR
[2] = target: T2, MCR-1 full-length protein; assay: SPR; Reichert 4SPR; MCR-1 or MCR-1-200 in PBS directly immobilised on a Planar Mixed SAM chip; SspB 0.156-5 μM (twofold dilutions) in PBST pH 7.4, 0.05% Tween-20; details: both partners purified
[3] = target: T3, MCR-1-200 catalytic domain protein; assay: as above; details: both partners purified

Row | Binder | koff [1] [s⁻¹] | Kd [2] [µM] | Kd [3] [µM]
1 | MCR-1-200 catalytic domain protein (domain or fragment) SVGKLASIEYKKASAPKDTIYHAKDAVQATKPDMRKPRLVVFVVGETARADHVSFNGYERDTFPQLAKIDGVTNFSNVTSCGTSTAYSVPCMFSYLGADEYDVDTAKYQENVLDTLDRLGVSILWRDNNSDSKGVMDKLPKAQFADYKSATNNAICNTNPYNECRDVGMLVGLDDFVAANNGKDMLIMLHQMGNHGPAYFKRYDEKFAKFTPVCEGNELAKCEHQSLINAYDNALLATDDFIAQSIQWLQTHSNAYDVSMLYVSDHGESLGENGVYLHGMPNAFAPKEQRSVPAFFWTDKQTGITPMATDTVLTHDAITPTLLKLFDVTADKVKDRTAFIR | 0.0106 |  | 
2 | SspB protein (SPR analyte) (natural protein, Stringent starvation protein B, E. coli; also called Stringent starvation protein B) MDLSQLTPRRPYLLRAFYEWLLDNQLTPHLVVDVTLPGVQVPMEYARDGQIVLNIAPRAVGNLELANDEVRFNARFGGIPRQVSVPLAAVLAIYARENGAGTMFEPEAAYDEDTSIMNDEEASADNETVMSVIDGDKPDHDDDTHPDDEPPQPPRGGRPALRVVK |  | 140 | 5.13
3 | MCR-1 full-length protein (enzyme) MMQHTSVWYRRSVSPFVLVASVAVFLTATANLTFFDKISQTYPIADNLGFVLTIAVVLFGAMLLITTLLSSYRYVLKPVLILLLIMGAVTSYFTDTYGTVYDTTMLQNALQTDQAETKDLLNAAFIMRIIGLGVLPSLLVAFVKVDYPTWGKGLMRRLGLIVASLALILLPVVAFSSHYASFFRVHKPLRSYVNPIMPIYSVGKLASIEYKKASAPKDTIYHAKDAVQATKPDMRKPRLVVFVVGETARADHVSFNGYERDTFPQLAKIDGVTNFSNVTSCGTSTAYSVPCMFSYLGADEYDVDTAKYQENVLDTLDRLGVSILWRDNNSDSKGVMDKLPKAQFADYKSATNNAICNTNPYNECRDVGMLVGLDDFVAANNGKDMLIMLHQMGNHGPAYFKRYDEKFAKFTPVCEGNELAKCEHQSLINAYDNALLATDDFIAQSIQWLQTHSNAYDVSMLYVSDHGESLGENGVYLHGMPNAFAPKEQRSVPAFFWTDKQTGITPMATDTVLTHDAITPTLLKLFDVTADKVKDRTAFIR | 0.325 |  | 
